Columns and labels:
Details in all cases: both partners purified
[1] = molecular target: CoV-2-S-RBD-SD1 spike construct (SARS-CoV-2, UniProt P0DTC2); assay: ELISA
[2] = molecular target: SARS-CoV-2 RBD domain (used for HDX-MS of 7A9) (SARS-CoV-2, reference strain …); assay: HDX-MS
[3] = molecular target: CoV-2-S-RBD construct used for x-ray crystallography (SARS-CoV-2, UniProt P0DTC2); assay: crystal structure

Measured: binding result

B1: 7A9 VHH (VHH)
VHH: QVQLVESGGGLVQAGGSLRLSCSASGGTASRSAMGWFRQAPGKEREFVAGISRRNSGSTYVADSYEDSVKGRFTISRDNAKNTIYLQMNSLKPEDTAVYYCAAEPTLGWYVPRRSVEYEYWGQGTQVTVSS
binds: all assays above

Reference: PMC10444775 (Scientific Reports, 2023)
